Data from a protein production outcome set (Wang et al. 2014).

Assay: label from the status in PepcDB records

Row | Sequence | protein production
1 | MPDPKPEVLDFLLSRRSRPAKTLALPVPDRAALAPILTGALRTPDHGKLEPWRLIVLEAGAMPRLAALADARAEALALDPDKSAKGRAQFAQSHLAVVVVARPEPSDKVPEIEQILSAGAVCLSLLNAAQAAGWGANWLTGWPAYDRGFLREGLGLAETEFVAGIVHIGSETVAPPERPRPDVASLTTWVSE | failed
2 | MPDTKIVDANNKFGFKLFSEIAKQDGNAKNISVSPTSVAIALAMTYNGASGSTQKAMAKTLELQGISLPELNSGYASLNKLLQNPGENVQLTIANSLWVNQDVSLRPDFVQTTRDFYQAKVTNLDFQNVTAVNTINSWVQENTKGKIDKIVDNIEPNQALFLINAIYFNGKWSNAFDKSQTTPQTFYTASGQQKQHPMMSQTGEYRYYETPQFQSVSLPYGQDGKVSLYIFLPTKNSNLKAFSQNLNAENWEKWMPQFRNREGSIRLPRFQTDYDITLNDALKSLGMAEAFSNKANFSGIGDNLTISQVRHKTVIEVNEEGTEASAATSVGMVATSLREPQQPFKMIVDRPFFYAIRDNQSKNILFMGAVVEPN | failed
3 | MPDVDKIIQFKREILDNLSNERLSKESFGLSMDVKLPEPGESIVPWIGEDLALDETDDELDLNFMLDALENEDKLSYSDIFNDNLPLSGSNLRVDVDSELSTLNNDFDVSSSDSFENNIDKVLDDNSIDLEIASKLDFDNLINSPELSSEELINNQGNNNFFEANNDSSVLGDSNFLQSNEFNIDDAVNGKNQTDEQSEMFVGDSLNLSADEDDFENVIDDFKFLEYDQNANFKRFEFKVNYPLFLKHLNSYPRNLRIAIAEALTKENVSRFKLEALIDLVEKNKKRLKFIAKFVGDIVGRSIKLPVIYFKAEEFSKLQQKLSYRVSRALLPLIKIASFFVVLVLVSLYLIVDVIFFYVASESKYKEGIESIYANKRDLAKSIFRDAYYIRPDDKWFINYAKAFEDVRDFDSAEEKYEELFTIEPFSKNSTNRRRKKFNKEGYISYASMKIGLGEHSEANSILDEVISYDLYDYDALVLKGDNYFKWAKTNSNYYKDSINSYTVVLSKYGQKKEILFKLFNAYIEANLDTESDNVNNFIKSNEILDIDEVVYTKYAKKLVDKYISFVTYNQRANNLAINLNYLNGQTNLLNKEFSDFKRNDGRTIFKLDNNVNMNSEIEYILRKILNKNPNYDKALFESGRYSYYIGDFKKAEVYLLKALNSFRHKNSIEDAGDKILAYKILADIYEKTRDSLRASNIIGLALSDYSFYKKHNLIKGSKEISSIYEKQGDILRSLNDFKSAISSYKLAINEGVDYPDVYYKVGLLSYRENNYDDALKYLFKVESMAGFSSSNEVLNTIALTLYKIGDFLASRSYYLRVMQNLELEKANVLNFNPKENDYHKTLLLKEIETYNNLGVVEVMASFSSIRDTKLFNSGVSNLSESAKIFDILNRDEDMVKSVKKDLASLNLRNIFKNSFSKSNVLFYENLSEKL | failed
4 | MPEASSPASEKSLSRLLLELLWQLAALLIPIFFVTLLPPPAALGVLLGCAAAMTLAARLGWPKTARGLARLMISAAFGLGFSLGRALPAYWDIAAAFTSIFAGLAAVSHLERRLGLVQPSPTPISAWGGNEPQQTPEGQPIRVFNHGEIAMGGPTYCDYLFPDGVLLQGLGSSARFSSDGRYFAAPLPSRQHWGLAILDREQRRLYRCNREHFWELDAFSADTLSGRHSPLVDNGQHQASLNSLLQEAECVELVAVADLWLEPGQWLEALARQDFEESAPHGSHRLHASLALPASLRALEQPLEPLRTPPYRISIDGQPSGLLLRADAPRIWRDDGRALACIAHEQAQPEAACCWLWQADKGWRALPAPWVASHAEPSFYPGPLLSLDRHWLGYSAYLDLAEADHGRYGYRLHSTHSDSETGVGHDRQGCLQVAPLPLTRTQLLQPLDGSGARGESRIQSQPLLGEQRALFSWLTDNPRGLGAYRCQIGTWQLPGCWLLDHRVSDCQRYLALLPWSETLELAPQVVVADLQQQRLIYSPALLAARLLDFRQGRLSLAVLVGRLDPDHASSPLQRFNRPAPAPEHAAAFCTEGPASQPCYERQDWLVIDDQLQPVAPWRLVDRPQAAVAEGDFIQPAPDGRDAAWLFGSETEYADSWLRETSPRLGGHLLTASGCAVGDLAPSLIWSTDARYLALTRLRLGAGDPQQGYRAWQLLLLDVQERSLRIAPDWLRHRPLFQHFDARGLALQLFERDWQAADDPDPGRSLEWALEDLLRLPAEPLREHQGLWLSAADWPQARAWQALRRPAHPAFRAGA | failed
5 | MPEEVSNEIEAPSLHTPEEVLLHYWGYPSFRPVQLPIIESVLAGKDTLGLLPTGGGKSITFQVPGLLLPGLTLVVTPLIALMRDQIMGLRQKGIKATAVHAGMTREQIITTLDNCIYGRYKFLYVSPERLGSELFLSRLHALRVSLLVVDECHCISQWGYDFRPAYLSIADIREALPDVPVLALTATATRPVIDDIQRILRFPEPNVLRKSFFRPNLSYSIRRTADKETMLLHILSRVDGSAVVYCRNRDKARDLARFLGENGFSADFYHAGLNHVTREIRQKSWMEGETRIIVCTNAFGMGIDKPDVRLVLHMEMPSSPEEYFQEAGRAGRDGERAYAVLLAGEDDIFNLKRRVSNEFPPREYIATVYNRICNYLQIGEGEGFERSFDFDIDAFCRNFRMFPTQVLAAIRILDVAGIWEYREEKTRSRLTIQVQRDELYRMRSEQASDSVLTALMRTYDGLFADYVSIVESELAEKTGLSVDQVYQQLLLLNKAGIVNYIPQKNLPRIYFLTRREDAELLQIPRAAYEDRRDRLKARIDQSLRYIEEENTCRSRMLLAYFGEEQSHNCKLCDVCLRRKDGELHHHEVDDLLHFLEQRLTEETPYVLIADICRELHHHPDVVLKAIRFVMKESWQYSTDGDTVFLTHKLPGGLNL | failed
6 | MPEGHRATAIYFRHLLLIRVEIENIVNTLAICRHTFYISSLSLPCNLNKLIIMENLQSNLFYSLAGVAAVASLASCTNKQKTTEQKPLNIVYIMTDDHTAQMMSCYDTRYMETPNLDRIAADGVRFTQSFVANSLSGPSRACMITGKHSCANKFYDNTTCVFDSSQQTFPKLLQKVGYQTALVGKWHLESLPSGFNYWQIVPGQGDYYNPAFITQDNDTIQKHGYITNLITDDAIDWMENKRDPEKPFCLLIHHKAIHRNWMADTCNLALYEDKTFPLPDNFFDDYEGRPAAAAQEMSIVKDMDMIYDLKMLRPNEKSRLRSLYERFLGRMDEGQRAAWDKFYAPIIDDFYKQNLTGKELANWKFQRYMRDYMKTVKSLDDNVGRVLDYLKEKGLLDNTLVVYTSDQGFYMGEHGWFDKRFMYEESMRTPLIMRLPKGFDRRGDITEMVQNIDYAPTFLELAGAEIPADIHGVSLLPLLKGEHPKDWRKSLYYHFYEYPAEHMVKRHYGVRTERYKLIHFYNDINWWELYDMQADPSEMHNLYGEAEYEPVVKELKDELLKLQEQYNDPVRFSPERDKE | failed
7 | MPEGLATAQAKYNGAAGRAFVEGLPALAAGFLERWELRLDGPSMHGWAALVLPVVRRDGTGAVLKLQILDAETEGEPLALRVWDGDGAVRLLDHDPATGTMLLERLDAGRMLSHVADSREAVLVIARLLAHLTATPAPPGVRRLGDIARGMLERTPGTLERIPDPADRRLVADCAAAVREVVDEPGDRLLHWDLHYENVLAADRAPWIAIDPKPLAGDPGFDLLPALDNRYDPGETRWRFDALTDVLGLDRERARAWSLGRVLQNSLWNVEDGDPLETEQMEIGRLLRDL | failed
8 | MPEITLKVDSAYPEDQGNGKARLDPSAMQALNVSPGDLVRITGKTSTVAKVWRSFESDWNMEKIRIDKYTRANASVNPGDRVTVEKVEEEIPATSVTLVSPSEISAAFPDEEDDYLISLINFPVSLDDIIPIKTFHPGPPLEFKVSAIEPENACILNKMTELVFNDDDEFDGTKAITYEDIGGLKGELKRVREMIELPIRHPELFETMGIEPPKGVLLYGPPGTGKTLIAKAVANESGAHFISIAGPEIISKYYGESEQKLREIFEEAEEEAPSIIFIDELDSIAPKREDVNGEVERRVVAQLLTMLDGITDRGQVIVIGATNRPDAIDPALRRPGRFDREIEIGVPAEADRMEILQIHTKDMPFEGMAKLKELRSSEPSETVLEKALADYEASRDKLLWMLASQAKGFVGADLAALAREAAIRALRRQIDVADIDNEKIPEEVLRKLEVTTSDFILASREVAPSAMREIALETADVSWTDIGGSRDAVRDVRESVEFPLTRKEVFAQLGIRPPKGVLLYGPPGTGKTMIAKAVAHESGANFIAVKGPELLSKWVGESEKAVRDIFKKARQVAPAIIFFDELDSLTPSRGASDGSRTTENVLNQILTEMDGIEELNDVMILAASNRPDIIDPALLRSGRFDRLVYISEPEEADRKEILAVHMQNMPIEGSSFDEAVKEVSGLNEASLESLGAKFSGKSVTIKQIKTAAGKYTKGTPLSLIEERRRLAAVLRQHAVTLSDPEKTKLIRQLAEDTAGYVGSDLEGLCREAAMHALRNQANVVTADDFAEARKKIHPTMNERVREYYISISQRFKGGLPKEAQNLIEYQ | failed
9 | MPEPHAVLYVTNELSHIVKNEFLPIWKLTGDESLNDLWLENGKYATDVYAYGDVSKWTIRQLRGHGFIFISTHKNVQLADIIKTVDVRVPREVARSHDMKAFENEIGRRRIRMRKGFGDALRNYAFKMAIEFHGSEAETLNDANPRLHKIYGMPEIPPLYMEYAEIGTRFDDEPTDEKLVSMLHYIVYSAEEVHYIGCGDLRTLMQFKKRSPGRFRRVLWHVYDPIAPECSDPNVIVHNIMVDSKKDILKHMNFLKRVERPFIWDVSSDRSQMNDHEWETTRFAEDRLGEEIAYEMGGAFSSALIKHRIPNSKDEYHCISTYLFPQPGADADMYELRNFMRLRGYSHVDRHMHPDASVTKVVSRDVRKMVELYHGRDCGSFLKKRLFEHLHIVRKNGLLHESDEPRADLFYLTNRCNMGLEPSIYEVMKKSVIATAWVGRAPLYDYDDFALPRSTVMLNGSYRDIRILDGNGAILFLMWRYPDIVKKDLTYDPAWAMNFAVSLKEPIPDPPVPDISLCRFIGLRVESSVLRVRNPTLHETADELKRMGLDLSGHLYVTLMSGAYVTDLFWWFKMILDWSAQNREQKLRDLKRSAAEVIEWKEQMAERPWHVRNDLIAALREYKRKMGMREGASIDSWLELLRHL | not failed
10 | MPERVKRKRYALVGTGNRGTTMWGRELLAGWSDYVELVGICDLNLMRAERARAMMGSNAPLYDDFDRMMVEQRPELVIVCTPDDTHDDIIIRALEGGADVISEKPMTTTPEKIDRIRAAEAKSGRRVDVSFNYRFSPTAARIKELIDDGAIGTVTSVDFHWYLDNQHGADYFRRWHAFTEHSGSLFVHKATHHFDLLNWYLDSDPVEVKGFGQLLHYGKNGPFRGTRCRTCPHKDECDYFMDLGADPFLDALYEDPSSIDGYMRDACVFREEIDIPDTMSASIRYASGVQVSYSLNTYMPIEGHHIAFNGHKGRIEMRQYEKQPWAEPPADEILVVKSFGGGVERIWVPHEPGGHYGGDNRMRDMIFKPGSNDRLRQRAGSRAGAMSVLCGVAALKSARDGGSQPIKSLPL | failed
11 | MPESYWEKVSGKNIPSSLDLYPIIHNYLQEDDEILDIGCGSGKISLELASKGYSVTGIDINSEAIRLAETAARSPGLNQKTGGKAEFKVENASSLSFHDSSFDFAVMQAFLTSVPDPKERSRIIKEVFRVLKPGAYLYLVEFGQNWHLKLYRKRYLHDFPITKEEGSFLARDPETGETEFIAHHFTEKELVFLLTDCRFEIDYFRVKELETRTGNKILGFVIIAQKLLEHHHHHH | not failed
12 | MPEVVFYPQNKSINVEEGTTILQAARSAGVIIESPCNGTGTCGKCKVRLDEKSLPNVLAKSRHYLSKEEEEQGYVLACETQITGDIKVELGENKQNGTLKILSRGHSFNIDLKPFIRKEYFVHEDVTKVFAGKEQLGIEAGDTTKENYGAVVDIGTTTLVASIVNLNNGDEIGTSSALNPQAVHAQDVLSRIKFSSDADGLKVMHSELTDKINSMIGKIALRAGISKEHIYEIVFSGNTCMLHLASNTCPESLGKYPYTPKISGAAYLDAAKYNIDISPFGIIYLPPIISAYVGADIVSGILASQLHEKDGVILFVDIGTNGEMVLASCGNLSATSTAAGPAFEGMNITCGMRAGEAAIEFFEIEEQGSINIKVIGETEAAGICGSGLLDMVGEFAAHGVIKKNGQFIDPESENVLHPKLAERLVRQDGKWIFKVTDKVFLSQKDIRQVQLAKGAVRAGIEFLLENKGVRASDVDKVLIAGSFGYHLREKSLINIGLLPKEFEGKVEFVGNTSLSGAKAFLLNQTYREKMKETVKSVEVLELANYKDFDRVFVRCLSFLEHHHHHH | failed
